Experimental findings from patent US12295987B2, “Method of using a GIP/GLP1 co-agonist for diabetes” (Eli Lilly and Company, priority 2018, dated 2025) are described below.

In the assay the target is T1, human gastric inhibitory peptide receptor (hGIPR) (Homo sapiens, UniProt P48546).
T1 construct: expressed in transfected cells; host or cells: HEK293
T1 sequence (P48546 22-466): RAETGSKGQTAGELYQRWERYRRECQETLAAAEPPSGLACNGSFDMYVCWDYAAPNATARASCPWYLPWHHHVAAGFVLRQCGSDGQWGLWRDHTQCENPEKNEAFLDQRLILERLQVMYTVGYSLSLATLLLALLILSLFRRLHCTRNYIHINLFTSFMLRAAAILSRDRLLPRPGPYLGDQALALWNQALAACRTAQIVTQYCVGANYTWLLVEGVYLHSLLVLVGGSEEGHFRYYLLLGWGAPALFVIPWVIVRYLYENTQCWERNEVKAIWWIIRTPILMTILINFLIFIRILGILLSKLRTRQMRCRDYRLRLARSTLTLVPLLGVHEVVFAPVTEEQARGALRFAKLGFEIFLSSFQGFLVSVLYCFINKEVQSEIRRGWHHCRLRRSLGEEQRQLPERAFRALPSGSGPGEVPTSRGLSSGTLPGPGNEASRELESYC
Briefly: cAMP pharmacological functional assay in presence of 0.1% casein, hGIPR. The format is cell-based. The settings on record: ratio of hGIPR to hGLP1R cAMP EC50 ratios.

As for “Y-Aib-EGT-αMeF(2F)-TSDYSI-Aib-LD-Orn-K((2-[2-(2-Amino-ethoxy)-ethoxy]-acetyl)2-(γGlu)-CO—(CH2)18—CO2H)AQ-Aib-EFI-(D-Glu)-YLIEGGPSSGAPPPS-NH2 (YXEGTXTSDYSIXLDXKAQXEFIXYLIEGGPSSGAPPPS; Aib, Orn, αMeF(2F), lipidated Lys, D-Glu, amide; (2)..(2) Xaa at position 2 is Aib; (6)..(6) Xaa at position 6 is alpha-methyl-Phe(2F); (13)..(13) Xaa at position 13 is Aib; (16)..(16) Xaa at position 16 is Orn; MOD_RES (17)..(17) Lys at position 17 is chemically modified by conjugation of the epsilon-amino group of the Lys side chain with (2-[2-(2-amino-ethoxy)-ethoxy]-acetyl)2-(gamma-Glu)-CO-(CH2)18- CO2H; (20)..(20) Xaa at position 20 is Aib;) [Peptide 250]”, the “[hGIPR/hGLP1R] EC50 Ratio” value was found to be 4.34.

With “Y-Aib-EGT-αMeF(2F)-TSDYSI-Aib-LDEK((2-[2-(2-Amino-ethoxy)-ethoxy]-acetyl)2-(γGlu)-CO—(CH2)18—CO2H)AQ-Aib-EFI-(D-Glu)-YLIEGGPSSGAPPPS-NH2 (YXEGTXTSDYSIXLDEKAQXEFIXYLIEGGPSSGAPPPS; Aib, αMeF(2F), D-Glu; lipidated K; amide; (2)..(2) Xaa at position 2 is Aib; (6)..(6) Xaa at position 6 is alpha-methyl-Phe(2F); (13)..(13) Xaa at position 13 is Aib; MOD_RES (17)..(17) Lys at position 17 is chemically modified by conjugation of the epsilon-amino group of the Lys side chain with (2-[2-(2-amino-ethoxy)-ethoxy]-acetyl)2-(gamma-Glu)-CO-(CH2)18- CO2H; (20)..(20) Xaa at position 20 is Aib; (24)..(24) Xaa at position 24 is D-Gl) [Peptide 224]”, the “[hGIPR/hGLP1R] EC50 Ratio” value is 3.32.

Regarding “Y-Aib-EGT-αMeF(2F)-TSDYSI-Nle-LD-Orn-K((2-[2-(2-Amino-ethoxy)-ethoxy]-acetyl)2-(γGlu)-CO—(CH2)16—CO2H)AQ-Aib-EFI-(D-Glu)-YLIEGGPSSGAPPPS-NH2 (YXEGTXTSDYSIXLDXKAQXEFIXYLIEGGPSSGAPPPS; Aib, Nle, Orn, αMeF(2F), lipidated Lys, D-Glu, amide; (2)..(2) Xaa at position 2 is Aib; (6)..(6) Xaa at position 6 is alpha-methyl-Phe(2F); (13)..(13) Xaa at position 13 is Nle; (16)..(16) Xaa at position 16 is Orn; MOD_RES (17)..(17) Lys at position 17 is chemically modified by conjugation of the epsilon-amino group of the Lys side chain with (2-[2-(2-amino-ethoxy)-ethoxy]-acetyl)2-(gamma-Glu)-CO-(CH2)16- CO2H; (20)..(20) Xaa at position 20 is Aib;) [Peptide 249]”, the “[hGIPR/hGLP1R] EC50 Ratio” value worked out at 4.94.

On to “Y-Aib-EGT-αMeF(2F)-TSDYSI-αMeL-LD-Dab-K((2-[2-(2-Amino-ethoxy)-ethoxy]-acetyl)2-(γGlu)-CO—(CH2)16—CO2H)AQ-Aib-EFI-(D-Glu)-YLIEGGPSSGAPPPS-NH2 (YXEGTXTSDYSIXLDXKAQXEFIXYLIEGGPSSGAPPPS; Aib, αMeF(2F), αMeL, Dab, D-Glu; lipidated K; amide; (2)..(2) Xaa at position 2 is Aib; (6)..(6) Xaa at position 6 is alpha-methyl-Phe(2F); (13)..(13) Xaa at position 13 is alpha-methyl-Leu; (16)..(16) Xaa at position 16 is Dab; MOD_RES (17)..(17) Lys at position 17 is chemically modified by conjugation of the epsilon-amino group of the Lys side chain with (2-[2-(2-amino-ethoxy)-ethoxy]-acetyl)2-(gamma-Glu)-CO-(CH2)16- CO2H; (20)..(20) Xaa at positi) [Peptide 209]”, for which the “[hGIPR/hGLP1R] EC50 Ratio” value worked out at 5.12.

Take “Y-Aib-EGT-αMeF(2F)-TSDYSI-αMeL-LD-Dab-K((2-[2-(2-Amino-ethoxy)-ethoxy]-acetyl)2-(γGlu)-CO—(CH2)18—CO2H)AQ-Aib-EFI-(D-Glu)-YLIEGGPSSGAPPPS-NH2 (YXEGTXTSDYSIXLDXKAQXEFIXYLIEGGPSSGAPPPS; Aib, αMeF(2F), αMeL, Dab, D-Glu; lipidated K; amide; (2)..(2) Xaa at position 2 is Aib; (6)..(6) Xaa at position 6 is alpha-methyl-Phe(2F); (13)..(13) Xaa at position 13 is alpha-methyl-Leu; (16)..(16) Xaa at position 16 is Dab; MOD_RES (17)..(17) Lys at position 17 is chemically modified by conjugation of the epsilon-amino group of the Lys side chain with (2-[2-(2-amino-ethoxy)-ethoxy]-acetyl)2-(gamma-Glu)-CO-(CH2)18- CO2H; (20)..(20) Xaa at positi) [Peptide 217]”: the “[hGIPR/hGLP1R] EC50 Ratio” value was found to be 2.99.

In the case of “Y-Aib-EGT-αMeF(2F)-TSDYSI-αMeL-LD-Dap-K((2-[2-(2-Amino-ethoxy)-ethoxy]-acetyl)2-(γGlu)-CO—(CH2)16—CO2H)AQ-Aib-EFI-(D-Glu)-YLIEGGPSSGAPPPS-NH2 (YXEGTXTSDYSIXLDXKAQXEFIXYLIEGGPSSGAPPPS; Aib, αMeF(2F), αMeL, Dap, D-Glu; lipidated K; amide; (2)..(2) Xaa at position 2 is Aib; (6)..(6) Xaa at position 6 is alpha-methyl-Phe(2F); (13)..(13) Xaa at position 13 is alpha-methyl-Leu; (16)..(16) Xaa at position 16 is Dap; MOD_RES (17)..(17) Lys at position 17 is chemically modified by conjugation of the epsilon-amino group of the Lys side chain with (2-[2-(2-amino-ethoxy)-ethoxy]-acetyl)2-(gamma-Glu)-CO-(CH2)16- CO2H; (20)..(20) Xaa at positi) [Peptide 210]”, the “[hGIPR/hGLP1R] EC50 Ratio” value came to 5.24.

As to “Y-Aib-EGT-αMeF(2F)-TSDYSI-αMeL-LD-Dap-K((2-[2-(2-Amino-ethoxy)-ethoxy]-acetyl)2-(γGlu)-CO—(CH2)18—CO2H)AQ-Aib-EFI-(D-Glu)-YLIEGGPSSGAPPPS-NH2 (YXEGTXTSDYSIXLDXKAQXEFIXYLIEGGPSSGAPPPS; Aib, αMeF(2F), αMeL, Dap, D-Glu; lipidated K; amide; (2)..(2) Xaa at position 2 is Aib; (6)..(6) Xaa at position 6 is alpha-methyl-Phe(2F); (13)..(13) Xaa at position 13 is alpha-methyl-Leu; (16)..(16) Xaa at position 16 is Dap; MOD_RES (17)..(17) Lys at position 17 is chemically modified by conjugation of the epsilon-amino group of the Lys side chain with (2-[2-(2-amino-ethoxy)-ethoxy]-acetyl)2-(gamma-Glu)-CO-(CH2)18- CO2H; (20)..(20) Xaa at positi) [Peptide 218]”, the “[hGIPR/hGLP1R] EC50 Ratio” value stood at 4.34.

On to “Y-Aib-EGT-αMeF(2F)-TSDYSI-αMeL-LD-Orn-K((2-[2-(2-Amino-ethoxy)-ethoxy]-acetyl)2-(γGlu)-CO—(CH2)16—CO2H)AQ-Aib-EFI (D-Glu)-αMeY-LIEGGPSSGAPPPS-NH2 (YXEGTXTSDYSIXLDXKAQXEFIXXLIEGGPSSGAPPPS; Aib, Orn, αMe residues, lipidated Lys, D-Glu, amide; (2)..(2) Xaa at position 2 is Aib; (6)..(6) Xaa at position 6 is alpha-methyl-Phe(2F); (13)..(13) Xaa at position 13 is alpha-methyl-Leu; (16)..(16) Xaa at position 16 is Orn; MOD_RES (17)..(17) Lys at position 17 is chemically modified by conjugation of the epsilon-amino group of the Lys side chain with (2-[2-(2-amino-ethoxy)-ethoxy]-acetyl)2-(gamma-Glu)-CO-(CH2)16- CO2H; (20)..(20) Xaa at positi) [Peptide 236]”, for which the “[hGIPR/hGLP1R] EC50 Ratio” value turned out to be 4.10.

Regarding “Y-Aib-EGT-αMeF(2F)-TSDYSI-αMeL-LD-Orn-K((2-[2-(2-Amino-ethoxy)-ethoxy]-acetyl)2-(γGlu)-CO—(CH2)16—CO2H)AQ-Aib-EFI-(D-Glu)-YLIEGGPSSGAPPPS-NH2 (YXEGTXTSDYSIXLDXKAQXEFIXYLIEGGPSSGAPPPS; Aib, Orn, αMe residues, lipidated Lys, D-Glu, amide; (2)..(2) Xaa at position 2 is Aib; (6)..(6) Xaa at position 6 is alpha-MeF(2F); (13)..(13) Xaa at position 13 is alpha-MeL; (16)..(16) Xaa at position 16 is Orn; MOD_RES (17)..(17) K at position 17 is chemically modified by conjugation of the epsilon-amino group of the K side chain with (2-[2-(2-amino-ethoxy)-ethoxy]-acetyl)2-(gamma-Glu)-CO-(CH2)16- CO2H; (20)..(20) Xaa at position 20 is Aib; (24)) [Peptide 2]”, the “[hGIPR/hGLP1R] EC50 Ratio” value stood at 6.63.
